According to patent publication US20160108117A1 (UNIVERSITE DE NICE SOPHIA ANTIPOLIS, published 2016):

T1: CXCL3 (human (presumed; the text does not …, UniProt P19876)
T1 construct: also called cytokine CXCL3; Gro-gamma
T1 sequence (chemokine, looked up): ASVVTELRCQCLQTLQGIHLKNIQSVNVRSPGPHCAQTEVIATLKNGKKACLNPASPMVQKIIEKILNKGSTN

T2: human chemokine CXCL7 (human, UniProt P02775 59-128)
T2 construct: also called NAP2; NAP-2
T2 sequence (looked up): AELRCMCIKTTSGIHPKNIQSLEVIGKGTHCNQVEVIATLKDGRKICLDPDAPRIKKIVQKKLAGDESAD

T3: human chemokine CXCL1 (human, UniProt P09341 35-107)
T3 construct: also called growth-regulated oncogene alpha; GRO-alpha
T3 sequence (looked up): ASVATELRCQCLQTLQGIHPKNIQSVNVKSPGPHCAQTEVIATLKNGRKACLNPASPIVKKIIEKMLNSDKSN

T4: human chemokine CXCL8 (human, UniProt P10145 28-99, limits assumed)
T4 construct: also called IL8; IL-8
T4 sequence (looked up): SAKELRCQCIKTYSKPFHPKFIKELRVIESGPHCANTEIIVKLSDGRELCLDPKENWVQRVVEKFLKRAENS

T5: peptide specific for human CXCL7 of sequence SDLYAELRCMCIKTTSGIHPKNIQS (SEQ ID NO: 20) coupled to keyhole … (human, coupled to keyhole limpet hemocyanine)
T5 construct: Immunisation peptide, used in the ELISA screen as a KLH conjugate; also called pCXCL7
T5 peptide: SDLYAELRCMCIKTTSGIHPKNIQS


What was measured:
CXCL3 [1] = molecular target: T1, CXCL3; assay: SPR (Biacore 3000), antibody captured on a CM5 chip, cytokine as analyte, 25 C; head 'x M10Exp8' applied as printed, but this does not agree with 1/Kd of the same pair (about 1.55e7)
From the text: (§1) With the BIAcore® 3000, 4 canals (Flow cell) are designed on the CM5 sensor surface. The polyclonal rabbit anti mouse IgG antibodies are covalently coupled on the 2nd, 3rd and 4th flow cells (FC), leaving the first FC (FC1) blank for reference subtraction. The first FC (FC1) is only activated (EDC/NHS) and deactivated (ethanolamine hydrochloride NaOH), without injection of capture antibody.
(§2) First the ligand (interest antibody) is captured by the immobilised antibodies. Diluted antibodies Mc12A10-13 (5 μg/mL), Mc35B11-8 (8 μg/mL), McCXCL1 (2 μg/mL), McCXCL7 (1 μg/mL), McCXCL8 (3 μg/mL), McPan CXCL1-2-3 (5 μg/mL) are captured by the polyclonal rabbit anti mouse IgG antibodies immobilized on the CM5 sensor chip with a 3 minutes injection at a flow rate of 5 μL/min. The complex “capture antibody—ligand” is stabilized during 10 minutes before the injection of the analyte (cytokines). This capture is a non-covalent interaction.
(§3) Then a range of cytokine concentration is injected (analyte) over the captured antibody (ligand). Cytokines CXCL1, CXCL3, NAP2, IL8 are injected over the captured ligand for a range of concentration from 0 to 10 μg/mL, at a flow rate of […]. The complex “ligand/analyte” is formed. The association and the dissociation phases are monitored over about 3 minutes and 2.5 minutes respectively. The signal induced is measured in RU (Resonance Unit).

human chemokine CXCL7 [2] = molecular target: T2, human chemokine CXCL7; assay: SPR (Biacore 3000), antibody captured on a CM5 chip, cytokine as analyte, 25 C; head 'x M10Exp8' applied, agrees with 1/Kd
From the text: as §1, §2, §3

human chemokine CXCL1 [3] = molecular target: T3, human chemokine CXCL1; assay: SPR (Biacore 3000), antibody captured on a CM5 chip, cytokine as analyte, 25 C; head 'x M10Exp8' applied as printed, but this does not agree with 1/Kd of the same pair (about 6.4e7)
From the text: as §1, §2, §3

human chemokine CXCL8 [4] = molecular target: T4, human chemokine CXCL8; assay: SPR (Biacore 3000), antibody captured on a CM5 chip, cytokine as analyte, 25 C; head 'x M10Exp8' applied as printed, but this does not agree with 1/Kd of the same pair (about 2.26e7)
From the text: as §1, §2, §3

[5] = molecular target: T5, peptide specific for human CXCL7 of …; assay: ELISA screen on KLH-coupled peptide
human chemokine CXCL7 [6] = molecular target: T2, human chemokine CXCL7; assay: SPR (Biacore 3000), antibody captured on a CM5 chip, cytokine injected as analyte, 25 C
From the text: as §1, §2, §3

human chemokine CXCL8 [7] = molecular target: T4, human chemokine CXCL8; assay: as above
From the text: as §1, §2, §3

CXCL3 [8] = molecular target: T1, CXCL3; assay: as above
From the text: as §1, §2, §3

human chemokine CXCL1 [9] = molecular target: T3, human chemokine CXCL1; assay: as above
From the text: as §1, §2, §3

human chemokine CXCL8 [10] = molecular target: T4, human chemokine CXCL8; assay: SPR (Biacore 3000), antibody captured on a CM5 chip, cytokine as analyte, 25 C; head 'x M10Exp8' applied as printed, but this does not agree with 1/Kd of the same pair (about 5.03e7)
From the text: as §1, §2, §3

human chemokine CXCL1 [11] = molecular target: T3, human chemokine CXCL1; assay: SPR (Biacore 3000), antibody captured on a CM5 chip, cytokine as analyte, 25 C; head 'x M10Exp8' applied as printed, but this does not agree with 1/Kd of the same pair (about 8.47e7)
From the text: as §1, §2, §3

Ka (CXCL3 [1]) [M⁻¹] | Ka (human chemokine CXCL7 [2]) [M⁻¹] | Ka (human chemokine CXCL1 [3]) [M⁻¹] | Ka (human chemokine CXCL8 [4]) [M⁻¹] | binding result [5] | Kd (human chemokine CXCL7 [6]) [nM] | Kd (human chemokine CXCL8 [7]) [nM] | Kd (CXCL3 [8]) [nM] | Kd (human chemokine CXCL1 [9]) [nM] | Ka (human chemokine CXCL8 [10]) [M⁻¹] | Ka (human chemokine CXCL1 [11]) [M⁻¹] | Binder
1.55e+07 | 3.03e+08 | 6.4e+07 | 2.26e+07 | binds | 3.3 | 44.3 | 64.5 | 15.6 |  |  | monoclonal rat IgG antibody produced by the hybridoma 12A10-13 (CNCM I-4617) (antibody, V domains shown, also called Mc12A10-13) VH: QVQLQQSGAELAKPGSSVKISCKASGYTFTSYYISWIKQTTGQGLEYIGYINTGSGGTNYNEKFKGKATLTVDKSSSTAFMQLSSLTPDDSAVYYCASPSGGFDYWGQGVMVTVSS VL: EIVLTQSPTTMAASPGEKVTITCRASSSVSYMHWYQQKPGASPKPWIYDTSKLASGVPNRFSGSGSGTSYSLTISSMETEDTATYYCQQWSSNSLTFGSGTKLEIK
 | 2.01e+08 |  |  | binds | 4.99 | 19.9 | 247 | 11.8 | 5.03e+07 | 8.5e+07 | monoclonal rat IgG antibody produced by the hybridoma 35B11-8 (CNCM I-4618) (antibody, V domains shown, also called Mc35B11-8) VH: EVQLVESGGGLVQPGRSLKLSCVASGFTFNNYWMTWIRQAPGKGLEWVASISKTGSNPYYPDSVKGRFTISRDNAKNTLYLQMNSLRSEDTATYYCARDGTTPLDYWGQGVMVTVSS VL: DIQMTQSPPSLSASLGDKVTITCQASQNINKYIAWYQQKPGKAPGLLIHYTSTLVSGIPSRFSGSGSGRVYSFSISNVESEDIASYYCLQYDNSPFPFGAGTKLELK
